Test results taken from the supplement of paper PMC12764529.

Assay: folding stability dG unfold (combined trypsin and chymotrypsin); higher = more stable
Protocol: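 Folding stability of de novo designed mini-proteins (<80 aa, no Cys; designed by TrROS, TrMRF, ProteinMPNN and the joint model) was measured by cDNA display proteolysis with trypsin and chymotrypsin. Each protease was used at 11 concentrations in a threefold dilution series plus a no-protease condition. K50 was inferred by Bayesian fitting of sequencing counts, and dG unfold was derived against a sequence-predicted unfolded-state K50 (Tsuboyama et al. method). Sequences shown include variable-length N-terminal GS-type padding (SAGGSAGG...) inside a display construct carrying a PA tag. Rows were kept only if the AF2 dimer inter-PAE was >15, to exclude likely homo-oligomers.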

Folding stability dG unfold, < -1 kcal/mol:
SAGGSAGGPKPEIDIEPYPEEGQMYVKIRLPGNGRPITIPVEGPMTPNDPEKAIEEAKDALEKFSAGGSAGG [r6_331_TrROS]
SAGGSAGGRIRVPDGREIPPGQSKEEAKDQVKDWFKERNPQNGNKKVKIEAEKWDGMPWIRVKPSAGGSAGG [r6_558_TrROS]
SAGGSAGGSAADLAKLEKVEVEEVPTDPNAEYRVTAELPTPGEPVEFTRRRLPDGSWEYSGSAGGSAGGSAG [r3_234_JUSTAS]
SAGGSAGGSAEEILELFPDLELLEVDPVEPRALVRRSDDSWLRVNLATGEAEEVGPGEAERESAGGSAGGSA [r18_381_TrMRF]
SAGGSAGGSAGAAEFELSGTVRIGDVPVKVTPRLYVPEDGGYRAEPRVELYFREDTPGYRSAGGSAGGSAGG [r11_121_TrMRF]
SAGGSAGGSAGAPRVRSVTPVGEETFFLPEDRVVRVTLWAAEGEGPPRLFRRVEVLPLDESAGGSAGGSAGG [r11_129_TrMRF]
SAGGSAGGSAGEKPIYYRIKHRNPANGQKVKHEIPFPPNDADEIKEQMEKQPGIDEIEPFSAGGSAGGSAGG [r17_438_TrROS]
SAGGSAGGSAGGAKELADRMRDAGYEPEADPDSGKIEVRHPNPNGKRMKREINIPPEDISAGGSAGGSAGGS [r10_1173_TrROS]
SAGGSAGGSAGGDADKALPVGFELVEAETVELGDNPVLLVRLKGKNGEQLLLVPPDAPISAGGSAGGSAGGS [r10_968_TrMRF]
SAGGSAGGSAGGDKKAIEELVKKLPPDTKLAPVKLPDGKEKLIFVERREDGSRKALVLDSAGGSAGGSAGGS [r10_1017_TrMRF]
SAGGSAGGSAGGDNIKIDIDFDPGYGVFTSKIYPPNGGPISDLSIKIPPMSPEDLDKFKSAGGSAGGSAGGS [r10_717_TrROS]
SAGGSAGGSAGGDPNIEKTYKIKVAKGDKNGKIIKVIEKEIKVKTPEEAEKFAKELAKSSAGGSAGGSAGGS [r10_57_TrMRF]
SAGGSAGGSAGGEEERMWMFSVRVPDKPVMFPFDDLEKLAEEKGVPVKIEWARMPADDLKSAGGSAGGSAGG [r7_185_TrROS]
SAGGSAGGSAGGFPNMPIKEIKIDNPERVPGKPRVRIEFTFPGGPRKFMMPADDLQDMFSAGGSAGGSAGGS [r10_771_TrROS]
SAGGSAGGSAGGGMKKITISDPVKPGAVITFPLTGETITVPANSSVTITLTEPLPGTYDLSAGGSAGGSAGG [r7_234_JUSTAS]
SAGGSAGGSAGGGSPAEQLREMAKQIPPVEIRFPGPGKERTIPDPDNFQEKGWKITEIEFSAGGSAGGSAGG [r7_504_TrROS]
SAGGSAGGSAGGGSPNVVVEKKLTVNLPKDVKLDFPPEYEVTVTKGKNTYKITEKIIVNKSAGGSAGGSAGG [r7_584_JUSTAS]
SAGGSAGGSAGGIEVDPDYAMITFPIPPNETIKFKLPNEKLKIEVPPGKPISIYIPAKDSAGGSAGGSAGGS [r10_464_TrROS]
SAGGSAGGSAGGIRLSPEFRELLKDAPPSPGQKREINFPNGYQITYTVKGNKIDDIEWTPSAGGSAGGSAGG [r7_611_TrROS]
SAGGSAGGSAGGKIKLAAANPKVAKELAKILEKELEEKGYKLKPNLKIEVLPAKPDPKLASAGGSAGGSAGG [r7_965_TrMRF]
SAGGSAGGSAGGKKKKIKLFIDHYFDGPPNINPEKIEKELKEKGIDVEVVLNALPKENKKSAGGSAGGSAGG [r7_355_TrMRF]
SAGGSAGGSAGGKSPLEKLRELAKKNPNVTVYVEKTGKEVKVPSIEELLEKGYKIVKIEKSAGGSAGGSAGG [r7_504_TrROS_Hall]
SAGGSAGGSAGGKVIHIPAGDAKTFIKEALEKDKDQPIVIHMYNPDGKEYSTMEVKIKPSAGGSAGGSAGGS [r10_741_TrROS]
SAGGSAGGSAGGMALEPKTVTSTLTVFFPDTGKTYPLTETVFIPTKFNLPLPPFPPETLSAGGSAGGSAGGS [r10_1026_JUSTAS]
SAGGSAGGSAGGMEVREVVEETPETLVVRTVRFYPDGSVEVLEEERIPLPPPELTPRNLLSAGGSAGGSAGG [r11_843_JUSTAS]
SAGGSAGGSAGGMIHIDPTPNGWKASVMNPNNGKPREIPFPPDNIPKLIPKGIDYVHIHPSAGGSAGGSAGG [r7_266_TrROS]
SAGGSAGGSAGGMIYPPDEVLEKTTKVEVELPNETGKTITKTIVTKTYAESGKSTIETAGSAGGSAGGSAGG [r17_266_JUSTAS]
SAGGSAGGSAGGMKITVKTSYDPSRPVFYEEVYPPGGEPISRKVIEIPPAEPKLIEELLSAGGSAGGSAGGS [r10_717_JUSTAS]
SAGGSAGGSAGGMKPYRIGNGAWLYVNPDDSVRIYNPGNGQKRTIPIGKPQPIRLPKNAISAGGSAGGSAGG [r7_299_TrROS]
SAGGSAGGSAGGMKVETRTITDPGGIEKVKEDYPGYTVEKTEKLPDGSTKVTLKYPILKSAGGSAGGSAGGS [r10_764_JUSTAS]
SAGGSAGGSAGGMLPIPKIEVKPGDEEEAKKTKEKLKKELEEKLGKKAKNLKVDFNPSLSAGGSAGGSAGGS [r10_1216_JUSTAS]
SAGGSAGGSAGGMTAVVTEPRLENGKEYLVRTVREFPSAEPRPGAVLEEEVVPLDVPLESAGGSAGGSAGGS [r10_730_JUSTAS]
SAGGSAGGSAGGMTETIPVSPSELDEVIEEAKKKGLKKIVLKDPNSSKKTVITKDKVEDESAGGSAGGSAGG [r7_564_JUSTAS]
SAGGSAGGSAGGMTTTVIEVDVEPGEVSEEEIKKRLAPLTGKPIEITTDPSGIPVITVEESAGGSAGGSAGG [r7_330_JUSTAS]
SAGGSAGGSAGGMVLELEGLGEEEIKALVREIPEDEPVTFVIKSKNNKTSVIPSEEILESAGGSAGGSAGGS [r10_732_JUSTAS]
SAGGSAGGSAGGNPGQEVTYQIKIPIRDKNGEPDWKIDIPVTMDTPQDADRFAKEIAKRSAGGSAGGSAGGS [r10_57_TrROS]
SAGGSAGGSAGGPEPIPVKISMWNPNGKPMGTFEFPIETPEDLDEFAREDGMPFRVEPESAGGSAGGSAGGS [r10_958_TrROS]
SAGGSAGGSAGGPETRVVYEPLPDGTSKIVEVEAAEDYVTVPVPFPNGGEAVFTVKPGELSAGGSAGGSAGG [r7_829_TrMRF]
SAGGSAGGSAGGPEWKEVPFTLRMPDGEPMDAKVYIDPEGPLEIENDDKWHTFPADQLKSAGGSAGGSAGGS [r10_649_TrROS]
SAGGSAGGSAGGPTVKVKKVELAPETGYAVVHFEVELEGEPKVVEGELVLPLPPPLDAPSAGGSAGGSAGGS [r10_541_TrMRF]
SAGGSAGGSAGGSGLKELREEAAKGKKFIVRTTVPLKEYEFDLKDLDKFEDHDIIVEPRSAGGSAGGSAGGS [r4_157_TrMRF]
SAGGSAGGSAGGSLALVRFPGDDRLFSVPVPEDLEAELVLPTPDGRPVGVRLFRVRDPRESAGGSAGGSAGG [r7_19_TrMRF]
SAGGSAGGSAGGSLNISVSSEPLPGDLLVEKGEFPSPKTLTTLVEPGTGVVTTTTEAASSAGGSAGGSAGGS [r10_237_JUSTAS]
SAGGSAGGSAGGSMITTEEFTDKEEAVEKAKKTPGVEKVEVKTTPSDKYVVIIYKPPLKSAGGSAGGSAGGS [r4_1_JUSTAS]
SAGGSAGGSAGGSMPTATLVEKEKDPVEDIITYKINTPPDKTEIIKYSPENPISESDIISAGGSAGGSAGGS [r4_481_JUSTAS]
SAGGSAGGSAGGSMSWDDRPPVISTSVVKLPIEPGTVVKEGSKTYVAKPDGTVTVIDPRSAGGSAGGSAGGS [r4_394_JUSTAS]
SAGGSAGGSAGGSMTPITTTEEVDPDFKEETIKVKNFPATTTPIPEENKRTTTIPTSLFSAGGSAGGSAGGS [r4_430_JUSTAS]
SAGGSAGGSAGGSPELVPVSTEVVELETESVLELEESKVEVKERLEIVVKRLTKEGLGLESAGGSAGGSAGG [r7_485_JUSTAS]
SAGGSAGGSAGGSPPIRIRFPNNGKTIPIDGPDDLKDYLRDNGLPIDPDDLDKIDEVEWSAGGSAGGSAGGS [r4_104_TrROS]
SAGGSAGGSAGGSPVYTLERTLPDGRPVRIEISGDEATITLESPEGGERTEKVSRSEILESAGGSAGGSAGG [r7_653_JUSTAS]
SAGGSAGGSAGGSRIHIEPDNNNYRIKNRNPGGKKEEFPFDSLEDLKDLPPGFPVEIYDSAGGSAGGSAGGS [r4_447_TrROS]
SAGGSAGGSAGGSSKLVTITRGNSKTLLTLKPDEPVLLPGSDSSVSVNEGSAVNISGNKLSAGGSAGGSAGG [r7_853_JUSTAS]
SAGGSAGGSAGGSSTVLETEVTPTSEPRLLTKTLIEEFPPDNPEKPVLSVKETVLPVLLSAGGSAGGSAGGS [r4_265_JUSTAS]
SAGGSAGGSAGGSTKSINFKNPSNIRDALREAQDEGVKPVVIYFPDGKTRKIPPGDPITSAGGSAGGSAGGS [r4_260_TrROS]
SAGGSAGGSAGGSTVLRLERVPGTGLLVERLVTPSGSGYSVEVTVRPVGEEEREALPLGSAGGSAGGSAGGS [r10_291_JUSTAS]
SAGGSAGGSAGGTIEGLPKEQLRDIFKDHGMPPDEFPPGQPVQFNIPNKNPIKVRVTDLSAGGSAGGSAGGS [r10_623_TrROS]
SAGGSAGGSAGGWLKGMPFKITKITDVRRNPENGRRWLTIRMPNPNRPVTVPLDDLPPGLSAGGSAGGSAGG [r7_304_TrROS]
